Paper PMC2953525, “Subtle Alterations in PCNA-Partner Interactions Severely Impair DNA Replication and Repair” (PLoS Biology, 2010)

How the values were obtained:
pol30-79 (yeast), P15873 = biological target: T1, pol30-79 (yeast), P15873; assay: two-hybrid; quantitative Y2H: generation time of the YRG2 strains in liquid SC-Leu-Trp-His, given relative to cells expressing WT PCNA; average of at least 3 experiments; settings: remark: other sources report otherwise
T1 chain: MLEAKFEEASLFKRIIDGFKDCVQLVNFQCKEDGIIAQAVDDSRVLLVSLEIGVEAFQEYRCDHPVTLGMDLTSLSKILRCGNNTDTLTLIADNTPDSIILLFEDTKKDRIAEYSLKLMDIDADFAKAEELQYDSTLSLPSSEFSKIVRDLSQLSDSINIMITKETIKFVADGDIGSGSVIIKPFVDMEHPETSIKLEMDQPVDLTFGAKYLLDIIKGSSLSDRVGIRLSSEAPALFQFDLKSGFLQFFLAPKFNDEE

[1] = biological target: T2, pol30-Rad30E2 of the mutant strain (yeast, UniProt P15873 1-258, IDCL DIDADFLKIEEL to DDDWDFLKILEL); assay: ELISA; PCNA captured from crude yeast extract (3 mg/ml) on plates coated with anti-PCNA antibody; bound GFP-tagged partner detected by anti-GFP, normalised to the anti-His signal of PCNA; settings: partners not purified
T2 construct: PCNA (POL30), yeast; source: yeast, sole source of PCNA under the native POL30 promoter, in crude cell extract
T2 sequence: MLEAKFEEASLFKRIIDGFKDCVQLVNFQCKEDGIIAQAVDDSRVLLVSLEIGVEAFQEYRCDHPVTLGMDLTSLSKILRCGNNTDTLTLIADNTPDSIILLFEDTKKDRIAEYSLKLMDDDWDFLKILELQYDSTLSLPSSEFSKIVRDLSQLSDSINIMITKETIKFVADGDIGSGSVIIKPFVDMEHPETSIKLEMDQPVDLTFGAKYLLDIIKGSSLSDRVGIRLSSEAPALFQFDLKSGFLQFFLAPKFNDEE

[2] = biological target: T3, pol30-Rad27E6 of the mutant strain (yeast, UniProt P15873 1-258, IDCL DIDADFLKIEEL to DGDYDILKIREL); assay: as above; settings: partners not purified
T3 construct: PCNA (POL30), yeast; source: yeast, sole source of PCNA under the native POL30 promoter, in crude cell extract
T3 sequence: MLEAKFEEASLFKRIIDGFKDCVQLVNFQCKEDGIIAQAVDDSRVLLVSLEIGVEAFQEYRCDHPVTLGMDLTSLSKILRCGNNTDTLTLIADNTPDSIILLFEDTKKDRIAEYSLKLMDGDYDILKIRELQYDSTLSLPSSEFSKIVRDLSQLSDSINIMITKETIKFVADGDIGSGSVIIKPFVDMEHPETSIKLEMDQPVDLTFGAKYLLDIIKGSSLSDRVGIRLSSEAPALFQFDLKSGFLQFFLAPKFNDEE

[3] = biological target: the molecule itself; assay: SEC; Superdex 200 10/300 GL, activity buffer (300 mM NaCl, 50 mM Tris-HCl, pH 8), monomer concentrations of 3–8 µM
pol30-Rad30E2 = biological target: T4, pol30-Rad30E2 (yeast, UniProt P15873 1-258, IDCL DIDADFLKIEEL to DDDWDFLKILEL); assay: two-hybrid; quantitative Y2H: generation time of the YRG2 strains in liquid SC-Leu-Trp-His, given relative to cells expressing WT PCNA; average of at least 3 experiments; settings: partners not purified
T4 construct: PCNA (POL30), yeast; source: yeast two-hybrid fusion (pAD-GAL4, strain YRG2)
T4 sequence: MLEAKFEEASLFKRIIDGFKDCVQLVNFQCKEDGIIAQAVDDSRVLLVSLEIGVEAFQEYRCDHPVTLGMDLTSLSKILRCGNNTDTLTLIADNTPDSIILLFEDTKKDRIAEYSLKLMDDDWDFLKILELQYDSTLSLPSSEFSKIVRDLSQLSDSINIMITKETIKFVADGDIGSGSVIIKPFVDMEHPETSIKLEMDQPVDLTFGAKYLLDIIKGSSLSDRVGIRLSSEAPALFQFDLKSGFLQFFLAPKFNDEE

pol30-Rad30E9 = biological target: T5, pol30-Rad30E9 (yeast, UniProt P15873 1-258, IDCL DIDADFLKIEEL to DNDWDFLKIDEL); assay: as above; settings: partners not purified
T5 construct: PCNA (POL30), yeast; also called Pol30-Rad30E9p; source: yeast two-hybrid fusion (pAD-GAL4, strain YRG2)
T5 sequence: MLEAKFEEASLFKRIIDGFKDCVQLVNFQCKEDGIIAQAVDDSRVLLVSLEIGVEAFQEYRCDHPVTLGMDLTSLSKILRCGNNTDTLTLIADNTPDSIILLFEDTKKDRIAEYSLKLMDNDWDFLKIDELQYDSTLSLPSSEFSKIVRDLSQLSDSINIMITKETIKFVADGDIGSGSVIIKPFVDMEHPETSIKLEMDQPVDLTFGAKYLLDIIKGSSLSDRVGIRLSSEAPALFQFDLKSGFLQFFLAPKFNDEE

pol30-Rad27L1 = biological target: T6, pol30-Rad27L1 (yeast, UniProt P15873 1-258, IDCL DIDADFLKIEEL to D––VDILKIGEL); assay: two-hybrid; pAD-GAL4-PCNA WT or mutant (called bait) and pBD-GAL4-partner (called prey) in strain YRG2; 10-fold serial dilutions spotted on SC-Leu-Trp-His plates, 30°C, 3 d; growth similar to WT PCNA is denoted 1; settings: partners not purified
T6 construct: PCNA (POL30), yeast; two residues after the first aspartic acid of the IDCL are deleted; source: yeast two-hybrid fusion (pAD-GAL4, strain YRG2)
T6 sequence: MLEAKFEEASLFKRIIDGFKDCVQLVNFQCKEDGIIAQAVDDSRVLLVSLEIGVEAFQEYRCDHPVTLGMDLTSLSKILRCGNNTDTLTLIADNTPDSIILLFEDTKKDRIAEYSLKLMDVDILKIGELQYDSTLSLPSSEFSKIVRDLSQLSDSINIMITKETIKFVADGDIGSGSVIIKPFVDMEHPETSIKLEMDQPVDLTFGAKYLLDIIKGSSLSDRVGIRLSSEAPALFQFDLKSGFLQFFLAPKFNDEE

pol30-Rad27L2 = biological target: T7, pol30-Rad27L2 (yeast, UniProt P15873 1-258, IDCL DIDADFLKIEEL to D––VDTLKITEL); assay: as above; settings: partners not purified
T7 construct: PCNA (POL30), yeast; two residues after the first aspartic acid of the IDCL are deleted; source: yeast two-hybrid fusion (pAD-GAL4, strain YRG2)
T7 sequence: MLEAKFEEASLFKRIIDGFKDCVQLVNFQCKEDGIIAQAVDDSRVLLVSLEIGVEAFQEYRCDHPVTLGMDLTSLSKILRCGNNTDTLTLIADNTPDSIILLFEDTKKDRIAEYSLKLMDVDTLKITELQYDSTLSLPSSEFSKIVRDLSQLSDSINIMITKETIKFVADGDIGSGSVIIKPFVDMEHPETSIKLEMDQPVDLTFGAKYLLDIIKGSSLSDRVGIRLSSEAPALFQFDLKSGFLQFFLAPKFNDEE

B1: Rad30, Q04049 1-632 (natural protein)
chain: MSKFTWKELIQLGSPSKAYESSLACIAHIDMNAFFAQVEQMRCGLSKEDPVVCVQWNSIIAVSYAARKYGISRMDTIQEALKKCSNLIPIHTAVFKKGEDFWQYHDGCGSWVQDPAKQISVEDHKVSLEPYRRESRKALKIFKSACDLVERASIDEVFLDLGRICFNMLMFDNEYELTGDLKLKDALSNIREAFIGGNYDINSHLPLIPEKIKSLKFEGDVFNPEGRDLITDWDDVILALGSQVCKGIRDSIKDILGYTTSCGLSSTKNVCKLASNYKKPDAQTIVKNDCLLDFLDCGKFEITSFWTLGGVLGKELIDVLDLPHENSIKHIRETWPDNAGQLKEFLDAKVKQSDYDRSTSNIDPLKTADLAEKLFKLSRGRYGLPLSSRPVVKSMMSNKNLRGKSCNSIVDCISWLEVFCAELTSRIQDLEQEYNKIVIPRTVSISLKTKSYEVYRKSGPVAYKGINFQSHELLKVGIKFVTDLDIKGKNKSYYPLTKLSMTITNFDIIDLQKTVVDMFGNQVHTFKSSAGKEDEEKTTSSKADEKTPKLECCKYQVTFTDQKALQEHADYHLALKLSEGLNGAEESSKNLSFGEKRLLFSRKRPNSQHTATPQKKQVTSSKNILSFFTRKK
fold change in affinity relative to WT PCNA (Y2H generation time) (pol30-79 (yeast), P15873): 0.4 fold

B2: GFP-tagged Rad30 (natural protein, yeast, UniProt Q04049 1-632, looked up)
chain: MSKFTWKELIQLGSPSKAYESSLACIAHIDMNAFFAQVEQMRCGLSKEDPVVCVQWNSIIAVSYAARKYGISRMDTIQEALKKCSNLIPIHTAVFKKGEDFWQYHDGCGSWVQDPAKQISVEDHKVSLEPYRRESRKALKIFKSACDLVERASIDEVFLDLGRICFNMLMFDNEYELTGDLKLKDALSNIREAFIGGNYDINSHLPLIPEKIKSLKFEGDVFNPEGRDLITDWDDVILALGSQVCKGIRDSIKDILGYTTSCGLSSTKNVCKLASNYKKPDAQTIVKNDCLLDFLDCGKFEITSFWTLGGVLGKELIDVLDLPHENSIKHIRETWPDNAGQLKEFLDAKVKQSDYDRSTSNIDPLKTADLAEKLFKLSRGRYGLPLSSRPVVKSMMSNKNLRGKSCNSIVDCISWLEVFCAELTSRIQDLEQEYNKIVIPRTVSISLKTKSYEVYRKSGPVAYKGINFQSHELLKVGIKFVTDLDIKGKNKSYYPLTKLSMTITNFDIIDLQKTVVDMFGNQVHTFKSSAGKEDEEKTTSSKADEKTPKLECCKYQVTFTDQKALQEHADYHLALKLSEGLNGAEESSKNLSFGEKRLLFSRKRPNSQHTATPQKKQVTSSKNILSFFTRKK
notes: Rad30, yeast, tagged at its natural locus; source: yeast, GFP-tagged at the natural locus, in crude cell extract; not shown: GFP, C-terminal, kept
increase in the amount of complex relative to the POL30 strain [1]: 70%

B3: GFP-tagged Rad27 (natural protein, yeast, UniProt P26793 1-382, looked up)
chain: MGIKGLNAIISEHVPSAIRKSDIKSFFGRKVAIDASMSLYQFLIAVRQQDGGQLTNEAGETTSHLMGMFYRTLRMIDNGIKPCYVFDGKPPDLKSHELTKRSSRRVETEKKLAEATTELEKMKQERRLVKVSKEHNEEAQKLLGLMGIPYIIAPTEAEAQCAELAKKGKVYAAASEDMDTLCYRTPFLLRHLTFSEAKKEPIHEIDTELVLRGLDLTIEQFVDLCIMLGCDYCESIRGVGPVTALKLIKTHGSIEKIVEFIESGESNNTKWKIPEDWPYKQARMLFLDPEVIDGNEINLKWSPPKEKELIEYLCDDKKFSEERVKSGISRLKKGLKSGIQGRLDGFFQVVPKTKEQLAAAAKRAQENKKLNKNKNKVTKGRR
notes: Rad27, yeast, tagged at its natural locus; source: yeast, GFP-tagged at the natural locus, in crude cell extract; not shown: GFP, C-terminal, kept
increase in the amount of complex relative to the POL30 strain [2]: 17%

B4: proliferating cell nuclear antigen (PCNA), 6×Histidine-tagged (natural protein, yeast)
chain: MLEAKFEEASLFKRIIDGFKDCVQLVNFQCKEDGIIAQAVDDSRVLLVSLEIGVEAFQEYRCDHPVTLGMDLTSLSKILRCGNNTDTLTLIADNTPDSIILLFEDTKKDRIAEYSLKLMDIDADFLKIEELQYDSTLSLPSSEFSKIVRDLSQLSDSINIMITKETIKFVADGDIGSGSVIIKPFVDMEHPETSIKLEMDQPVDLTFGAKYLLDIIKGSSLSDRVGIRLSSEAPALFQFDLKSGFLQFFLAPKFNDEE
notes: PCNA (POL30), yeast; cloned into pET28 by NdeI and XhoI; also called WT PCNA; Pol30p; source: E. coli BL21, purified (Ni-NTA)
stoichiometry N [3]: 3

B5: Rad30 (natural protein, yeast, UniProt Q04049 1-632, looked up)
chain: MSKFTWKELIQLGSPSKAYESSLACIAHIDMNAFFAQVEQMRCGLSKEDPVVCVQWNSIIAVSYAARKYGISRMDTIQEALKKCSNLIPIHTAVFKKGEDFWQYHDGCGSWVQDPAKQISVEDHKVSLEPYRRESRKALKIFKSACDLVERASIDEVFLDLGRICFNMLMFDNEYELTGDLKLKDALSNIREAFIGGNYDINSHLPLIPEKIKSLKFEGDVFNPEGRDLITDWDDVILALGSQVCKGIRDSIKDILGYTTSCGLSSTKNVCKLASNYKKPDAQTIVKNDCLLDFLDCGKFEITSFWTLGGVLGKELIDVLDLPHENSIKHIRETWPDNAGQLKEFLDAKVKQSDYDRSTSNIDPLKTADLAEKLFKLSRGRYGLPLSSRPVVKSMMSNKNLRGKSCNSIVDCISWLEVFCAELTSRIQDLEQEYNKIVIPRTVSISLKTKSYEVYRKSGPVAYKGINFQSHELLKVGIKFVTDLDIKGKNKSYYPLTKLSMTITNFDIIDLQKTVVDMFGNQVHTFKSSAGKEDEEKTTSSKADEKTPKLECCKYQVTFTDQKALQEHADYHLALKLSEGLNGAEESSKNLSFGEKRLLFSRKRPNSQHTATPQKKQVTSSKNILSFFTRKK
notes: Rad30 (DNA polymerase), yeast; also called pBD-Rad30; source: yeast two-hybrid fusion (pBD-GAL4, strain YRG2)
fold change in affinity relative to WT PCNA (Y2H generation time) (pol30-Rad30E2): 1.4 fold | fold change in affinity relative to WT PCNA (Y2H generation time) (pol30-Rad30E9): 1.6 fold | fold change in affinity relative to WT PCNA (Y2H) (pol30-Rad27L1): 0.4 fold | fold change in affinity relative to WT PCNA (Y2H) (pol30-Rad27L2): 0.5 fold
